Article PMC11506642, “Cooperative Substructure and Energetics of Allosteric Regulation of the Catalytic Core of the E3 Ubiquitin Ligase Parkin by Phosphorylated Ubiquitin” (Biomolecules, 2024)

Target: T1, phosphorylated ubiquitin (UniProt P0CG47 1-76, phosphorylated (site not given))
T1 construct: ubiquitin, the mature cut product of its precursor; also called pUb; source: prepared as described [16]
Assay: HDX-MS; native-state hydrogen exchange with pepsin fragmentation MS; 20 mM HEPES, 150 mM NaCl, 10 uM ZnCl2, 1 mM TCEP, 2.5% glycerol, pH 7.0, 20 °C, urea up to 4 M; ~7 uM Parkin(∆Ubl), ~12 uM pUb
Settings: both partners purified

binding result: binds
B1: Parkin(∆Ubl) (domain or fragment, human)
chain: SSGSPAGRSIYNSFYVYCKGPCQRVQPGKLRVQCSTCRQATLTLTQGPSCWDDVLIPNRMSGECQSPHCPGTSAEFFFKCGAHPTSDKETSVALHLIATNSRNITCITCTDVRSPVLVFQCNSRHVICLDCFHLYCVTRLNDRQFVHDPQLGYSLPCVAGCPNSLIKELHHFRILGEEQYNRYQQYGAEECVLQMGGVLCPRPGCGAGLLPEPDQRKVTCEGGNGLGCGFAFCRECKEAYHEGECSAVFEASGTTTQAYRVDERAAEQARWEAASKETIKKTTKPCPRCHVPVEKNGGCMHMKCPQPQCRLEWCWNCGCEWNRVCMGDHWFDV
notes: two extra serines that precede the Parkin residues in the construct; E3 ubiquitin ligase Parkin, human, canonical isoform (Swiss-Prot O60260-1), residues 135 through 465; RING0, RING1, IBR, REP and RING2 domains, without the Ubl domain and linker; The introduction defines the core as residues 137-461; the methods give the construct as (SS) plus 135-465; The His-SUMO fusion was cut with TEV …
